Among the data in the RNAGym collection of RNA variant scans (doi:10.1093/molbev/msab373) are reverse-splicing fitness values, retold here.

To fix the notation:
B1: Azoarcus group I ribozyme (parent)
chain: GUGCCUUGCGCCGGGAAACCACGCAAGGGAUGGUGUCAAAUUCGGCGAAACCUAAGCGCCCGCCCGGGCGUAUGGCAACGCCGAGCCAAGCUUCGGCGCCUGCGCCGAUGAAGGUGUAGAGACUAGACGGCACCCACCUAAGGCAAACGCUAUGGUGAAGGCAUAGUCCAGGGAGUGGCGAAAGUCACACAAACCGG

The variants in this data set derive from B1. Put plainly: reverse-splicing fitness (ratio to wild type); higher = more active; in vitro selection; Mg2+ level not given. The method in brief:
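An in vitro group I ribozyme library with randomized positions was T7-transcribed and gel-purified. In triplicate, 10 pmol RNA in EPPS pH 7.5 was reacted with 50 pmoles of a 30-nt RNA substrate for 1 h at 37 °C across several added MgCl2 levels (1–48 mM), then stopped with EDTA. Products were reverse transcribed from a substrate-complementary primer, PCR-amplified and sequenced (HiSeq 4000). Fitness is a variant's read proportion after selection over that before, normalised to wild type.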
GUGCCUUGCGCCGGGAAACCACGCAAGGGAUGGUGUCAAAUUCGGCGAAACCUAAGCGCCCGCCCGGGCGUAUGGCAACGCAGAGCCAAGCUUCGGCGCCUGCGCCGAUGCAGGUGUAGAGACUAGACGGCACCCACCUAAGGCGAACGGUAUGGUGAAGGCAUAGUCGAGGGAGCGGCGAAAGUCACACAAACCGG [C82A A111C A145G C150G C169G U176C]: the reverse-splicing fitness is 0.0128.

As for GUGCCUUGCGCCGGGAAACCACGCAAGGGAUGGUGUCAAAUUCGGCGAAACCUAAGCGCCCGCCCGGGCGUAUGGCAACGCAGAGCCAAGCUUCGGCGCCUGCGCCGAUGCAGGUGUAGAGACUAGACGGCACCCACCUAAGGCGAACGGUAUGGUGAAGGCAUAGUCGAGGGAGAGGCGAAAGUCACACAAACCGG [C82A A111C A145G C150G C169G U176A], the reverse-splicing fitness was determined as 0.00988.

As to GUGCCUUGCGCCGGGAAACCACGCAAGGGAUGGUGUCAAAUUCGGCGAAACCUAAGCGCCCGCCCGGGCGUAUGGCAACGCAGAGCCAAGCUUCGGCGCCUGCGCCGAUGCAGGUGUAGAGACUAGACGGCACCCACCUAAGGCGAACGGUAUGGUGAAGGCAUAGUCGAGGGAGGGGCGAAAGUCACACAAACCGG [C82A A111C A145G C150G C169G U176G], the reverse-splicing fitness was 0.00568.

Turning to GUGCCUUGCGCCGGGAAACCACGCAAGGGAUGGUGUCAAAUUCGGCGAAACCUAAGCGCCCGCCCGGGCGUAUGGCAACGCAGAGCCAAGCUUCGGCGCCUGCGCCGAUGCAGGUGUAGAGACUAGACGGCACCCACCUAAGGCGAACGAUAUGGUGAAGGCAUAGUCAAGGGAGCGGCGAAAGUCACACAAACCGG [C82A A111C A145G C150A C169A U176C], the reverse-splicing fitness is 0.0191.

In the case of GUGCCUUGCGCCGGGAAACCACGCAAGGGAUGGUGUCAAAUUCGGCGAAACCUAAGCGCCCGCCCGGGCGUAUGGCAACGCAGAGCCAAGCUUCGGCGCCUGCGCCGAUGCAGGUGUAGAGACUAGACGGCACCCACCUAAGGCGAACGAUAUGGUGAAGGCAUAGUCAAGGGAGGGGCGAAAGUCACACAAACCGG [C82A A111C A145G C150A C169A U176G], the reverse-splicing fitness came to 0.0091.

For GUGCCUUGCGCCGGGAAACCACGCAAGGGAUGGUGUCAAAUUCGGCGAAACCUAAGCGCCCGCCCGGGCGUAUGGCAACGCAGAGCCAAGCUUCGGCGCCUGCGCCGAUGCAGGUGUAGAGACUAGACGGCACCCACCUAAGGCGAACGAUAUGGUGAAGGCAUAGUCAAGGGAGAGGCGAAAGUCACACAAACCGG [C82A A111C A145G C150A C169A U176A], the reverse-splicing fitness stood at 0.0172.

In the case of GUGCCUUGCGCCGGGAAACCACGCAAGGGAUGGUGUCAAAUUCGGCGAAACCUAAGCGCCCGCCCGGGCGUAUGGCAACGCAGAGCCAAGCUUCGGCGCCUGCGCCGAUGCAGGUGUAGAGACUAGACGGCACCCACCUAAGGCGAACGGUAUGGUGAAGGCAUAGUCGAGGGAGUGGCGAAAGUCACACAAACCGG [C82A A111C A145G C150G C169G], the reverse-splicing fitness was 0.00662.

As to GUGCCUUGCGCCGGGAAACCACGCAAGGGAUGGUGUCAAAUUCGGCGAAACCUAAGCGCCCGCCCGGGCGUAUGGCAACGCAGAGCCAAGCUUCGGCGCCUGCGCCGAUGCAGGUGUAGAGACUAGACGGCACCCACCUAAGGCGAACGGUAUGGUGAAGGCAUAGUCAAGGGAGUGGCGAAAGUCACACAAACCGG [C82A A111C A145G C150G C169A], the reverse-splicing fitness is 0.00852.

On to GUGCCUUGCGCCGGGAAACCACGCAAGGGAUGGUGUCAAAUUCGGCGAAACCUAAGCGCCCGCCCGGGCGUAUGGCAACGCAGAGCCAAGCUUCGGCGCCUGCGCCGAUGCAGGUGUAGAGACUAGACGGCACCCACCUAAGGCGAACGGUAUGGUGAAGGCAUAGUCUAGGGAGUGGCGAAAGUCACACAAACCGG [C82A A111C A145G C150G C169U], for which the reverse-splicing fitness was determined as 0.00803.

Consider GUGCCUUGCGCCGGGAAACCACGCAAGGGAUGGUGUCAAAUUCGGCGAAACCUAAGCGCCCGCCCGGGCGUAUGGCAACGCAGAGCCAAGCUUCGGCGCCUGCGCCGAUGCAGGUGUAGAGACUAGACGGCACCCACCUAAGGCGAACGAUAUGGUGAAGGCAUAGUCGAGGGAGCGGCGAAAGUCACACAAACCGG [C82A A111C A145G C150A C169G U176C], for which the reverse-splicing fitness came to 0.0253.

On to GUGCCUUGCGCCGGGAAACCACGCAAGGGAUGGUGUCAAAUUCGGCGAAACCUAAGCGCCCGCCCGGGCGUAUGGCAACGCAGAGCCAAGCUUCGGCGCCUGCGCCGAUGCAGGUGUAGAGACUAGACGGCACCCACCUAAGGCGAACGAUAUGGUGAAGGCAUAGUCGAGGGAGGGGCGAAAGUCACACAAACCGG [C82A A111C A145G C150A C169G U176G], for which the reverse-splicing fitness was 0.0087.

For the variant GUGCCUUGCGCCGGGAAACCACGCAAGGGAUGGUGUCAAAUUCGGCGAAACCUAAGCGCCCGCCCGGGCGUAUGGCAACGCAGAGCCAAGCUUCGGCGCCUGCGCCGAUGCAGGUGUAGAGACUAGACGGCACCCACCUAAGGCGAACGAUAUGGUGAAGGCAUAGUCGAGGGAGAGGCGAAAGUCACACAAACCGG [C82A A111C A145G C150A C169G U176A], the reverse-splicing fitness was 0.0152.

On to GUGCCUUGCGCCGGGAAACCACGCAAGGGAUGGUGUCAAAUUCGGCGAAACCUAAGCGCCCGCCCGGGCGUAUGGCAACGCAGAGCCAAGCUUCGGCGCCUGCGCCGAUGCAGGUGUAGAGACUAGACGGCACCCACCUAAGGCGAACGAUAUGGUGAAGGCAUAGUCCAGGGAGCGGCGAAAGUCACACAAACCGG [C82A A111C A145G C150A U176C], for which the reverse-splicing fitness came out at 0.0335.

Turning to GUGCCUUGCGCCGGGAAACCACGCAAGGGAUGGUGUCAAAUUCGGCGAAACCUAAGCGCCCGCCCGGGCGUAUGGCAACGCAGAGCCAAGCUUCGGCGCCUGCGCCGAUGCAGGUGUAGAGACUAGACGGCACCCACCUAAGGCGAACGAUAUGGUGAAGGCAUAGUCCAGGGAGAGGCGAAAGUCACACAAACCGG [C82A A111C A145G C150A U176A], the reverse-splicing fitness is 0.0153.

GUGCCUUGCGCCGGGAAACCACGCAAGGGAUGGUGUCAAAUUCGGCGAAACCUAAGCGCCCGCCCGGGCGUAUGGCAACGCAGAGCCAAGCUUCGGCGCCUGCGCCGAUGCAGGUGUAGAGACUAGACGGCACCCACCUAAGGCGAACGAUAUGGUGAAGGCAUAGUCCAGGGAGGGGCGAAAGUCACACAAACCGG [C82A A111C A145G C150A U176G]: the reverse-splicing fitness was 0.00922.
